Data as given in paper PMC4701952, “Evolution of the Plant Reproduction Master Regulators LFY and the MADS Transcription Factors: The Role of Protein Structure in the Evolutionary Development of the Flower” (Frontiers in Plant Science, 2015).
Residue numbers refer to the chain shown, from its start. “And” between values parts separate entries of the source, which are not always exact repeats. Equal entries are not always repeated.

B1: SEP3^L115R (natural protein, A. thaliana, UniProt O22456 1-251, looked up)
chain: MGRGRVELKRIENKINRQVTFAKRRNGLLKKAYELSVLCDAEVALIIFSNRGKLYEFCSSSSMLRTLERYQKCNYGAPEPNVPSREALAVELSSQQEYLKLKERYDALQRTQRNRLGEDLGPLSTKELESLERQLDSSLKQIRALRTQFMLDQLNDLQSKERMLTETNKTLRLRLADGYQMPLQLNPNQEEVDHYGRHHHQQQQHSQAFFQPLECEPILQIGYQGQQDGMGAGPSVNNYMLGWLPYDTNSI
notes: also called dimerisation-interface mutant; source: in vitro translated (pSPUTK, Promega SP6 High Yield Expression System), used without further purification
B2: SEP3^L171A (natural protein, A. thaliana, UniProt O22456 1-251, looked up)
chain: B1 chain with R115L, L171A
notes: also called tetramerisation interface mutant; source: in vitro translated (pSPUTK, Promega SP6 High Yield Expression System), used without further purification
B3: SEP3^ΔC (domain or fragment, A. thaliana)
chain: MGRGRVELKRIENKINRQVTFAKRRNGLLKKAYELSVLCDAEVALIIFSNRGKLYEFCSSSSMLRTLERYQKCNYGAPEPNVPSREALAVELSSQQEYLKLKERYDALQRTQRNLLGEDLGPLSTKELESLERQLDSSLKQIRALRTQFMLDQLNDLQSKLADG
notes: also called SEP3 truncation mutant; source: in vitro translated (pSPUTK, Promega SP6 High Yield Expression System), used without further purification
B4: SEP3^(75-178) construct (wild type) (domain or fragment, A. thaliana, UniProt O22456 75-178, looked up)
chain: YGAPEPNVPSREALAVELSSQQEYLKLKERYDALQRTQRNLLGEDLGPLSTKELESLERQLDSSLKQIRALRTQFMLDQLNDLQSKERMLTETNKTLRLRLADG
notes: cloned into pESPRIT002 (N-terminal 6x-His tag followed by a TEV site); also called SEP3 K-domain; oligomerisation domain of SEP3; source: E. coli BL21 (DE3) CodonPlusRIL, purified (Ni-Sepharose, TEV cleavage, Superdex 200 SEC); not shown: His6, N-terminal, cleaved
B5: SEP3^(75-178) L131V (domain or fragment, A. thaliana, UniProt O22456 75-178, looked up)
chain: B4 chain with L57V
notes: made with SEP3^(75-178) as the template; source: E. coli Rosetta2 (DE3) pLysS, purified (Ni-Sepharose, TEV cleavage, Superdex 200 SEC); not shown: His6, N-terminal, cleaved
B6: SEP3^(75-178) L135M (domain or fragment, A. thaliana, UniProt O22456 75-178, looked up)
chain: B4 chain with L61M
notes: as for B5
B7: SEP3^(75-178) L135A (domain or fragment, A. thaliana, UniProt O22456 75-178, looked up)
chain: B4 chain with L61A
notes: as for B5
B8: SEP3^(75-178) L115R (domain or fragment, A. thaliana, UniProt O22456 75-178, looked up)
chain: B4 chain with L41R
notes: as for B5
B9: SEP3^(75-178) Y98K (domain or fragment, A. thaliana, UniProt O22456 75-178, looked up)
chain: B4 chain with Y24K
notes: as for B5
B10: SEP3^(75-178) Y105N (domain or fragment, A. thaliana, UniProt O22456 75-178, looked up)
chain: B4 chain with Y31N
notes: as for B5

Columns and labels:
[1] = target: the molecule itself; assay: native gel or EMSA; in vitro translated proteins (4 ul TnT mix, not purified) with 5-10 nM DY-682 labelled 121 bp SOC1 promoter DNA with two CArG boxes; complexes seen on DNA, assigned as putative dimer and tetramer
[2] = target: the molecule itself; assay: native gel or EMSA; in vitro translated proteins (not purified) with Cy5 labelled SOC1 promoter DNA in which CArG box 1 or CArG box 2 is mutated (one site left)
[3] = target: the molecule itself; assay: SEC; Superdex 200 10/300 GL in Buffer A (30 mM Tris pH 8.0, 300 mM NaCl, 5% glycerol, 2 mM TCEP); oligomeric state against the wild type protein; self-association

Protein | stoichiometry N [3] | binding result [3] | other results
B1 |  |  | stoichiometry N [1]: 2
B2 |  |  | stoichiometry N [2]: 4
B3 |  |  | stoichiometry N [1]: 2
B4 | 4 and 2 |  | 
B5 |  | binds | 
B6 | 2 |  | 
B7 |  | binds | 
B8 |  | binds | 
B9 | 2 |  | 
B10 | 4 |  | 
